Source: FireProtDB (doi:10.1016/0022-2836(92)90907-2)

B1: Ribonuclease, P00648 (parent)
chain: MMKMEGIALKKRLSWISVCLLVLVSAAGMLFSTAAKTETSSHKAHTEAQVINTFDGVADYLQTYHKLPDNYITKSEAQALGWVASKGNLADVAPGKSIGGDIFSNREGKLPGKSGRTWREADINYTSGFRNSDRILYSSDWLIYKTTDHYQTFTKIR

Variants of: B1
Settings: Bacillus amyloliquefaciens; pH 6.3; 25 °C; Urea; Fluorescence; MES 450 mM; reversible: yes; structure 1BNI; whole UniProt chain shown

| Variant | ddG of mutation (higher = less stable) [kcal/mol] | denaturant m value [kcal/mol/M] | denaturant midpoint (higher = more stable) [M] | unfolding free energy [kcal/mol] |
| --- | --- | --- | --- | --- |
| A79D | 0.41 | 1.99 | 4.2 | 8.42 |
| A79G | 0.65 | 1.98 | 4.1 | 8.18 |
| A79M | 0.08 | 1.97 | 4.4 | 8.75 |
| A79K | 0.1 | 1.94 | 4.5 | 8.73 |
| A79C | 1.85 | 1.71 | 4 | 6.98 |
| A79H | 0.7 | 1.94 | 4.1 | 8.13 |
| A79P | 4.12 | 1.89 | 2.4 | 4.71 |
| A79L | -0.08 | 2.02 | 4.4 | 8.91 |
| A79N | 0.33 | 2 | 4.2 | 8.5 |
| A79Q | 0.35 | 1.95 | 4.3 | 8.48 |
| A79E | -0.13 | 2.08 | 4.3 | 8.96 |
| A79Y | 0.7 | 1.95 | 4.1 | 8.13 |
| A79F | 0.43 | 1.98 | 4.2 | 8.4 |
| A79S | 0.16 | 1.98 | 4.3 | 8.67 |
| A79V | 0.34 | 2.05 | 4.1 | 8.49 |
| A79W | 1.14 | 1.88 | 4 | 7.69 |
| A79R | 0.2 | 1.91 | 4.5 | 8.63 |
